Data: patent US20210388087A1 (Chugai, published 2021)
Residue numbers refer to the chain shown, from its start.

B1: H183/L072 VL N28F (antibody, name in Kabat numbering, V domains shown)
VH: QVQLVESGGGLVQPGRSLRLSCAASGFTFSNAWMHWVRQAPGKGLEWVAQIKDKGNAYAAYYAPSVKGRFTISRDDSKNSIYLQMNSLKTEDTAVYYCHYVHYASASTVLPAFGVDAWGQGTTVTVSS
VL: DIVMTQSPLSLPVTPGEPASISCQASQELVHMFRNTYLHWYQQKPGQAPRLLIYKVSNRFPGVPDRFSGSGSGTDFTLKISRVEAEDVGVYYCAQGTSVPFTFGQGTKLEIK
notes: Dual-Ig
B2: H183/L072 VL N28G (antibody, name in Kabat numbering, V domains shown)
VH: B1 VH
VL: B1 VL with F33G
notes: Dual-Ig
B3: H183/L072 VL N28H (antibody, name in Kabat numbering, V domains shown)
VH: B1 VH
VL: B1 VL with F33H
notes: Dual-Ig
B4: H183/L072 VL N28I (antibody, name in Kabat numbering, V domains shown)
VH: B1 VH
VL: B1 VL with F33I
notes: Dual-Ig
B5: H183/L072 VL N28K (antibody, name in Kabat numbering, V domains shown)
VH: B1 VH
VL: B1 VL with F33K
notes: Dual-Ig
B6: H183/L072 VL N28L (antibody, name in Kabat numbering, V domains shown)
VH: B1 VH
VL: B1 VL with F33L
notes: Dual-Ig
B7: H183/L072 VL N28M (antibody, name in Kabat numbering, V domains shown)
VH: B1 VH
VL: B1 VL with F33M
notes: Dual-Ig
B8: H183/L072 VL N28P (antibody, name in Kabat numbering, V domains shown)
VH: B1 VH
VL: B1 VL with F33P
notes: Dual-Ig
B9: H183/L072 VL N28Q (antibody, name in Kabat numbering, V domains shown)
VH: B1 VH
VL: B1 VL with F33Q
notes: Dual-Ig
B10: H183/L072 VL N28R (antibody, name in Kabat numbering, V domains shown)
VH: B1 VH
VL: B1 VL with F33R
notes: Dual-Ig
B11: H183/L072 VL N28S (antibody, name in Kabat numbering, V domains shown)
VH: B1 VH
VL: B1 VL with F33S
notes: Dual-Ig
B12: H183/L072 VL N28T (antibody, name in Kabat numbering, V domains shown)
VH: B1 VH
VL: B1 VL with F33T
notes: Dual-Ig
B13: H183/L072 VL N28V (antibody, name in Kabat numbering, V domains shown)
VH: B1 VH
VL: B1 VL with F33V
notes: Dual-Ig
B14: H183/L072 VL N28W (antibody, name in Kabat numbering, V domains shown)
VH: B1 VH
VL: B1 VL with F33W
notes: Dual-Ig
B15: H183/L072 VL N28Y (antibody, name in Kabat numbering, V domains shown)
VH: B1 VH
VL: B1 VL with F33Y
notes: Dual-Ig
B16: H183/L072 VL N30A (antibody, name in Kabat numbering, V domains shown)
VH: B1 VH
VL: B1 VL with F33N, N35A
notes: Dual-Ig
B17: H183/L072 VL N30D (antibody, name in Kabat numbering, V domains shown)
VH: B1 VH
VL: B1 VL with F33N, N35D
notes: Dual-Ig
B18: H183/L072 VL N30E (antibody, name in Kabat numbering, V domains shown)
VH: B1 VH
VL: B1 VL with F33N, N35E
notes: Dual-Ig

molecular target: T1, Human CD137 ECD (human); test: Biacore SPR, vs parent H183/L072
T1 construct: entry includes C-terminal His-tag and biotin acceptor peptide; also called human CD137 extracellular domain; 4-1BB
T1 sequence (chain, as listed by the source limits assumed): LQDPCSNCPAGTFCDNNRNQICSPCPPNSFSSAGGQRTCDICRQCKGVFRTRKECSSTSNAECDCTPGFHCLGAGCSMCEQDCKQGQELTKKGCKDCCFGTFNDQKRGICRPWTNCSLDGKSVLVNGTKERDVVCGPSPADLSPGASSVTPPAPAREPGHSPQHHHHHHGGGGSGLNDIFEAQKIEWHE

Fold change of affinity, 0.4 fold:
B1, B3, B7, B8, B9, B10, B15

Fold change of affinity, 0.3 fold:
B4, B5, B6, B13, B14

Fold change of affinity, 0.7 fold:
B16

Fold change of affinity, 0.1 fold:
B17, B18

Fold change of affinity, 0.5 fold:
B2, B11, B12
